From US20210261648A1 (published 2021)

T1: FcγRIIa type H extracellular domain with C-terminal His tag (human, UniProt P12318 34-217)
T1 construct: extracellular domain; also called FcgRIIaH; FcγRIIa H
T1 sequence (looked up): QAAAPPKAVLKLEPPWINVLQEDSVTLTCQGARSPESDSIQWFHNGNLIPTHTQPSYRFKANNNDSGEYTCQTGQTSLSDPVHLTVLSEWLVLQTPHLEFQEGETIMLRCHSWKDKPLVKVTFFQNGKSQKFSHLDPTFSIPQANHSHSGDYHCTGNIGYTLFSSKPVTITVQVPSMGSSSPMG

T2: FcγRIIb extracellular domain with C-terminal His tag (human, UniProt P31994 43-217)
T2 construct: extracellular domain; For crystallography it was expressed with kifunensine and trimmed with Endo F1; also called FcgRIIb; FcγRIIb extracellular region; not shown: His tag attached to the C terminus
T2 sequence (looked up): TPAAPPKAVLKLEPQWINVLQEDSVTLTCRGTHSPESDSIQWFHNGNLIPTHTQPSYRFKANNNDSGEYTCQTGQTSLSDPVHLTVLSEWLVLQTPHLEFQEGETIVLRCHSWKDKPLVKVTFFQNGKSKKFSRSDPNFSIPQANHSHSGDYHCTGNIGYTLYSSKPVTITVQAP

T3: FcγRIIa type R extracellular domain with C-terminal His tag (human, UniProt P12318 34-217)
T3 chain: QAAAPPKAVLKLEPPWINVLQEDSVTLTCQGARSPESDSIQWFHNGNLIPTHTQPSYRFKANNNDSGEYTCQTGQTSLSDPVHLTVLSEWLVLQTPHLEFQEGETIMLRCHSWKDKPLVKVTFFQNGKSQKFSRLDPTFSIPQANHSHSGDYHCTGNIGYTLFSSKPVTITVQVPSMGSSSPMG

T4: FcγRIIa type H extracellular domain with C-terminal His tag (human, UniProt P12318 34-217)
T4 construct: extracellular domain; also called FcγRIIaH; FcgRIIaH; not shown: His tag attached to the C terminus
T4 sequence (looked up): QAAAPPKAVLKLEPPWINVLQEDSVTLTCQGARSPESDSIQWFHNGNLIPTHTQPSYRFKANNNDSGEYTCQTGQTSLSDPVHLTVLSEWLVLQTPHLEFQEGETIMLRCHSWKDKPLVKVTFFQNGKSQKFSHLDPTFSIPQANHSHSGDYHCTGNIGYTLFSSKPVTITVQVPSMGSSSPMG

T5: FcγRIIb extracellular domain with C-terminal His tag (human, UniProt P31994 43-217)
T5 construct: extracellular domain; For crystals it was expressed with kifunensine and trimmed with Endo F1; also called FcgRIIb; FcγRIIb extracellular region
T5 sequence (looked up): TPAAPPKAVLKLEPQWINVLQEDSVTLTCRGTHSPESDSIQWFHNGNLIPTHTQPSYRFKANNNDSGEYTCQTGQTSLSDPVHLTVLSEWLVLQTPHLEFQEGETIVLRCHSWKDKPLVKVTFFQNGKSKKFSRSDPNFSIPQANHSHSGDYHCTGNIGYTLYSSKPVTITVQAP


Assays:
[1] = target: T6, FcγRIa extracellular domain with C-terminal His tag (human, UniProt P12314 16-292); assay: SPR (Biacore)
T6 construct: Whole entry named; also called FcgRIa; CD64A
T6 sequence (P12314 16-292): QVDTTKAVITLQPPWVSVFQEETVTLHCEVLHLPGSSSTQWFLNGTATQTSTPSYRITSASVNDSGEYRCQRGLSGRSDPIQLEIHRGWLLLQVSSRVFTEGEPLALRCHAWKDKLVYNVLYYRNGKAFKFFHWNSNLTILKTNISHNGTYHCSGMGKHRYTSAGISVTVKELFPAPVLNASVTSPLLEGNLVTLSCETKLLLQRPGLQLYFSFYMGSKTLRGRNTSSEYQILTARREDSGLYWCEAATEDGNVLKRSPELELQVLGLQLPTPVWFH

[2] = target: T1, FcγRIIa type H extracellular domain …; assay: SPR (Biacore)
[3] = target: T7, FcγRIIIa type V extracellular domain with C-terminal His tag (human, UniProt P08637 17-208); assay: SPR (Biacore)
T7 construct: extracellular domain; Allotype V158 (type V); also called FcgRIIIaV; FcγRIIIaV
T7 sequence (P08637 17-208 F176V): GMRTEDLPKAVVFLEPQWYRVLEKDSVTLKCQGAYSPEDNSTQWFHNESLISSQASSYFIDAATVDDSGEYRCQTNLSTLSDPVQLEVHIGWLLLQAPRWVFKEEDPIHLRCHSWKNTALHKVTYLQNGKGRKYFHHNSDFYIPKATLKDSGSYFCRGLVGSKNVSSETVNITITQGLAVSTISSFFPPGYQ

[4] = target: T2, FcγRIIb extracellular domain with …; assay: SPR; KD for FcγRIIaH divided by KD for FcγRIIb
[5] = target: T2, FcγRIIb extracellular domain with …; assay: SPR; KD for FcγRIIaR divided by KD for FcγRIIb
[6] = target: T3, FcγRIIa type R extracellular domain …; assay: SPR (Biacore), antibody captured, FcγR as analyte
[7] = target: T2, FcγRIIb extracellular domain with …; assay: SPR (Biacore), antibody captured, FcγR as analyte
[8] = target: T8, FcγRIa extracellular domain with C-terminal His tag (human, UniProt P12314 16-292); assay: SPR (Biacore), antibody captured, FcγR as analyte
T8 construct: also called FcgRIa; not shown: His tag attached to the C terminus
T8 sequence (P12314 16-292): as the sequence (P12314 16-292) above

[9] = target: T4, FcγRIIa type H extracellular domain …; assay: SPR (Biacore), antibody captured, FcγR as analyte
[10] = target: T3, FcγRIIa type R extracellular domain …; assay: SPR; KD of IL6R-B3/IL6R-L divided by KD of the variant
[11] = target: T2, FcγRIIb extracellular domain with …; assay: as above
[12] = target: T5, FcγRIIb extracellular domain with …; assay: SPR (Biacore)
[13] = target: T5, FcγRIIb extracellular domain with …; assay: SPR (Biacore), relative amount of binding

Row | Binder | binding result [1] | binding result [2] | binding result [3] | KD(IIaH)/KD(IIb) [4] | KD(IIaR)/KD(IIb) [5] | Kd [6] [nM] | Kd [7] [nM] | Kd [8] [nM] | Kd [9] [nM] | KD(IIaR) of the parent polypeptide/KD(IIaR) of the altered polypeptide [10] | KD(IIb) of the parent polypeptide/KD(IIb) of the altered polypeptide [11] | fold increase of binding against IL6R-BP230/IL6R-L [12] | binding result [13]
1 | IL6R-BP563/IL6R-L (antibody, human IgG1, kappa, Anti-human IL-6R IgG1; alterations introduced into IL6R-B3 (G1d with K439E)) heavy: QVQLQESGPGLVKPSETLSLTCAVSGHSISHDHAWSWVRQPPGEGLEWIGFISYSGITNYNPSLQGRVTISRDNSKNTLYLQMNSLRAEDTAVYYCARSLARTTAMDYWGEGTLVTVSSASTKGPSVFPLAPSSKSTSGGTAALGCLVKDYFPEPVTVSWNSGALTSGVHTFPAVLQSSGLYSLSSVVTVPSSSLGTQTYICNVNHKPSNTKVDKKVEPKSCDKTHTCPPCPAPDLLGDDSVFLFPPKPKDTLMISRTPEVTCVVVDVSEEDGDVKFNWYVDGVEVHNAKTKPREEQDNSTYRVVSVLTVLHQDWLNGKEYKCKVSNKALPRPIEKTISKAKGQPREPQVYTLPPSRDELTKNQVSLTCLVKGFYPSDIAVEWESNGQPENNYKTTPPVLDSDGSFFLYSKLTVDKSRWQQGNVFSCSVMHEALHNHYTQESLSLSP light: not shown |  |  |  | 525 | 29.1 | 460 | 16 | 12 | 8300 | 2.4 | 196 |  | 
2 | IL6R-BP567/IL6R-L (antibody, human IgG1, kappa, Anti-human IL-6R IgG1; alterations introduced into IL6R-B3 (G1d with K439E)) heavy: QVQLQESGPGLVKPSETLSLTCAVSGHSISHDHAWSWVRQPPGEGLEWIGFISYSGITNYNPSLQGRVTISRDNSKNTLYLQMNSLRAEDTAVYYCARSLARTTAMDYWGEGTLVTVSSASTKGPSVFPLAPSSKSTSGGTAALGCLVKDYFPEPVTVSWNSGALTSGVHTFPAVLQSSGLYSLSSVVTVPSSSLGTQTYICNVNHKPSNTKVDKKVEPKSCDKTHTCPPCPAPDLLGGDSVFLFPPKPKDTLMISRTPEVTCVVIDVAEEDGEVKFNWYVDGVEVHNAKTKPREEQDNSTYRVVSVLTVLHQDWLNGKEYKCKVSNKALPAPIEKTISKAKGQPREPQVYTLPPSRDELTKNQVSLTCLVKGFYPSDIAVEWESNGQPENNYKTTPPVLDSDGSFFLYSKLTVDKSRWQQGNVFSCSVMHEALHNHYTQESLSLSP light: not shown |  |  |  | 1230 | 64.4 | 890 | 14 | 0.21 |  | 1.2 | 225 |  | 
3 | IL6R-BP473/IL6R-L (antibody, human IgG1, kappa) heavy: QVQLQESGPGLVKPSETLSLTCAVSGHSISHDHAWSWVRQPPGEGLEWIGFISYSGITNYNPSLQGRVTISRDNSKNTLYLQMNSLRAEDTAVYYCARSLARTTAMDYWGEGTLVTVSSASTKGPSVFPLAPSSKSTSGGTAALGCLVKDYFPEPVTVSWNSGALTSGVHTFPAVLQSSGLYSLSSVVTVPSSSLGTQTYICNVNHKPSNTKVDKKVEPKSCDKTHTCPPCPAPDLLGDDSVFLFPPKPKDTLMISRTPEVTCVVVDVSDEDGEVKFNWYVDGVEVHNAKTKPREEQDNSTYRVVSVLTVLHQDWLNGKEYKCKVSNKGLPRPIEKTISKAKGQPREPQVYTLPPSRDELTKNQVSLTCLVKGFYPSDIAVEWESNGQPENNYKTTPPVLDSDGSFFLYSKLTVDKSRWQQGNVFSCSVMHEALHNHYTQESLSLSP light: not shown | binds | binds | binds |  |  |  |  |  |  |  |  | 1.2 times | 
4 | IL6R-BP478/IL6R-L (antibody, human IgG4 S228P, kappa) heavy: QVQLQESGPGLVKPSETLSLTCAVSGHSISHDHAWSWVRQPPGEGLEWIGFISYSGITNYNPSLQGRVTISRDNSKNTLYLQMNSLRAEDTAVYYCARSLARTTAMDYWGEGTLVTVSSASTKGPSVFPLAPCSRSTSESTAALGCLVKDYFPEPVTVSWNSGALTSGVHTFPAVLQSSGLYSLSSVVTVPSSSLGTKTYTCNVDHKPSNTKVDKRVESKYGPPCPPCPAPDLLGDDSVFLFPPKPKDTLMISRTPEVTCVVVDVSDEDGEVKFNWYVDGVEVHNAKTKPREEQDNSTYRVVSVLTVLHQDWLNGKEYKCKVSNKALPRPIEKTISKAKGQPREPQVYTLPPSRDELTKNQVSLTCLVKGFYPSDIAVEWESNGQPENNYKTTPPVLDSDGSFFLYSKLTVDKSRWQQGNVFSCSVMHEALHNHYTQESLSLSP light: not shown | binds | binds | binds |  |  |  |  |  |  |  |  | 1.1 fold | 
5 | B3 variant of GpH7-B3/GpL16-k0 with Pro at position 238 (EU numbering) substituted with Asp (antibody, human IgG1, kappa, also called mutation A) heavy: not shown light: DIVMTQSPLSLPVTPGEPASISCQASESLVHSNRNTYLHWYLQKPGQSPQLLIYKVSNRFSGVPDRFSGSGSGTDFTLKISRVEAEDVGVYYCSQNTHVPPTFGQGTKVEIERTVAAPSVFIFPPSDEQLKSGTASVVCLLNNFYPREAKVQWKVDNALQSGNSQESVTEQDSKDSTYSLSSTLTLSKADYEKHKVYACEVTHQGLSSPVTKSFNRGEC |  |  |  |  |  |  |  |  |  |  |  |  | binds

Further lines, results first:

Row | binding result [1] | binding result [2] | binding result [3] | KD(IIaH)/KD(IIb) [4] | KD(IIaR)/KD(IIb) [5] | Kd [6] [nM] | Kd [7] [nM] | Kd [8] [nM] | Kd [9] [nM] | KD(IIaR) of the parent polypeptide/KD(IIaR) of the altered polypeptide [10] | KD(IIb) of the parent polypeptide/KD(IIb) of the altered polypeptide [11] | fold increase of binding against IL6R-BP230/IL6R-L [12] | binding result [13] | Binder
6 | binds | binds | binds |  |  |  |  |  |  |  |  |  |  | IL6R-BP471/IL6R-L (antibody, human IgG1, kappa) heavy: QVQLQESGPGLVKPSETLSLTCAVSGHSISHDHAWSWVRQPPGEGLEWIGFISYSGITNYNPSLQGRVTISRDNSKNTLYLQMNSLRAEDTAVYYCARSLARTTAMDYWGEGTLVTVSSASTKGPSVFPLAPSSKSTSGGTAALGCLVKDYFPEPVTVSWNSGALTSGVHTFPAVLQSSGLYSLSSVVTVPSSSLGTQTYICNVNHKPSNTKVDKKVEPKSCDKTHTCPPCPAPDLLGDDSVFLFPPKPKDTLMISRTPEVTCVVVDVSDEDGEVKFNWYVDGVEVHNAKTKPREEQDNSTYRVVSVLTVLHQDWLNGKEYKCKVSNKALPRSIEKTISKAKGQPREPQVYTLPPSRDELTKNQVSLTCLVKGFYPSDIAVEWESNGQPENNYKTTPPVLDSDGSFFLYSKLTVDKSRWQQGNVFSCSVMHEALHNHYTQESLSLSP light: not shown
7 | binds | binds | binds |  |  |  |  |  |  |  |  |  |  | IL6R-BP477/IL6R-L (antibody, human IgG1, kappa) heavy: QVQLQESGPGLVKPSETLSLTCAVSGHSISHDHAWSWVRQPPGEGLEWIGFISYSGITNYNPSLQGRVTISRDNSKNTLYLQMNSLRAEDTAVYYCARSLARTTAMDYWGEGTLVTVSSASTKGPSVFPLAPSSKSTSGGTAALGCLVKDYFPEPVTVSWNSGALTSGVHTFPAVLQSSGLYSLSSVVTVPSSSLGTQTYICNVNHKPSNTKVDKKVEPKSCDKTHTCPPCPAPDLLGDDSVFLFPPKPKDTLMISRTPEVTCVVVDVSDEDGEVKFNWYVDGVEVHNAKTKPREEQDNSTYRVVSVLTVLHQDWLNGKEYKCKVSNKGLPRSIEKTISKAKGQPREPQVYTLPPSRDELTKNQVSLTCLVKGFYPSDIAVEWESNGQPENNYKTTPPVLDSDGSFFLYSKLTVDKSRWQQGNVFSCSVMHEALHNHYTQESLSLSP light: not shown
8 |  |  |  | 748 | 46.1 | 680 | 15 | 0.19 |  | 1.6 | 211 |  |  | IL6R-BP568/IL6R-L (antibody, human IgG1, kappa, Anti-human IL-6R IgG1; alterations introduced into IL6R-B3 (G1d with K439E)) heavy: QVQLQESGPGLVKPSETLSLTCAVSGHSISHDHAWSWVRQPPGEGLEWIGFISYSGITNYNPSLQGRVTISRDNSKNTLYLQMNSLRAEDTAVYYCARSLARTTAMDYWGEGTLVTVSSASTKGPSVFPLAPSSKSTSGGTAALGCLVKDYFPEPVTVSWNSGALTSGVHTFPAVLQSSGLYSLSSVVTVPSSSLGTQTYICNVNHKPSNTKVDKKVEPKSCDKTHTCPPCPAPDLLGGDSVFLFPPKPKDTLMISRTPEVTCVVIDVAEEDGEVKFNWYVDGVEVHNAKTKPREEQYNSTYRVVSVLTVLHQDWLNGKEYKCKVSNKALPAPIEKTISKAKGQPREPQVYTLPPSRDELTKNQVSLTCLVKGFYPSDIAVEWESNGQPENNYKTTPPVLDSDGSFFLYSKLTVDKSRWQQGNVFSCSVMHEALHNHYTQESLSLSP light: not shown
